Drawing on patent US20050130151, “Method and identification of downstream mrna ligands to fmrp and their role in fragile x syndrome and associated disorders” (Emory University, published 2005), this text covers binding result and binding signal for nine molecules.

Data set [1] concerns the target T1, FMRP C-terminus (distal to KH domains, contains RGG box) (Homo sapiens, UniProt Q06787-9 Q06787-9:402-605). Kind of data set: filter; K+; abrogated in Li+. The conditions noted are these: tags: N-terminal T7, C-terminal His (pET21b); label: 32P-UTP; G4. The procedure: To assess whether the RNAs listed in Table 1 bound FMRP in a G-quartet dependent manner, binding in the presence of Li⁺ versus K⁺ was assessed, and mutants in which the Hoogsteen paired Gs were changed to Cs were generated.

Data set [2] concerns the target T1, FMRP C-terminus (distal to KH domains, …). Kind of data set: filter; all sc1 binding activity in C-terminal domain. The conditions noted are these: tags: N-terminal T7, C-terminal His (pET21b); label: 32P-UTP; stem-loop with intramolecular G4.
In data set [3] the target is FMRP N-terminus (Homo sapiens, UniProt Q06787-9 Q06787-9:3-218). The data set is described as above. The conditions noted are these: tags: N-terminal T7, C-terminal His (pET21b); label: 32P-UTP; stem-loop with intramolecular G4.
Data set [4] has as its target T2, FMRP (full length, iso7) (Homo sapiens, UniProt Q06787-9 Q06787-9:3-605). Kind of data set: EMSA; 100 nM FMRP; supershifted by anti-FMRP mAb. A general note: A gel shift assay detects complexes by their altered migration in electrophoresis.
Data set [5] has as its target FMRP I304N (KH2 mutant, full length) (Homo sapiens, UniProt Q06787-9 Q06787-9:3-605, I304N). Kind of data set: filter; nearly as well as wild-type FMRP.
The target in data set [6] is T2, FMRP (full length, iso7). Kind of data set: filter; no effect versus sc1.
Data set [7] deals with T2, FMRP (full length, iso7). Kind of data set: filter; minimal effect.
The target of data set [8] is T2, FMRP (full length, iso7). The data set is described as follows: filter; severe decrease, undetectable.
Data set [9] has as its target T2, FMRP (full length, iso7). Kind of data set: filter; 5-6 nt stem sufficient for high affinity; boundaries mapped by alkaline hydrolysis/filter capture.
Data set [10] concerns the target T2, FMRP (full length, iso7). Kind of data set: filter; no binding detected.
Data set [11] deals with T2, FMRP (full length, iso7). Kind of data set: filter; antisense control in K+.

In the case of GGGGAGGCAGGAGGAGGCCGAGG (ssRNA) [Guanine nucleotide exchange factor (KIAA0763) 3'UTR site], the binding result in [1] is recorded as “binds”.

For the molecule GAGCGGCUGCGGUGUGGAAGGAGUGGCUGGGUUGCGCACCUUGGCUUC (ssRNA) [sc1], the binding result is reported as “binds” in data set [2], “no binding” in data set [3], “binds” in [4] and “binds” in data set [5].

As for GAGCGGCUGCGGUGUGGAAGGAGUGGGUGGGUUGCGCACCUUGGCUUC (ssRNA, [none]) [sc1 C44G], the binding result in data set [6] was “binds”.

For the molecule GAGCGGCUGCGGUGUGGAAGAAGUGGCUGGGUUGCGCACCUUGGCUUC (ssRNA, [none]) [sc1 G38A], in data set [7], the binding signal was < 20 fold decrease.

Take GAGCGGCUGCGGUGUGGAAGGAGUGGCUGGGAAGCGCACCUUGGCUUC (ssRNA, [none]) [sc1 U49U50 to AA]: the binding signal in data set [7] is < 20 fold decrease.

As for GAGCGGCUGCGGUGUGGCCGGAGUGGCUGGGUUGCGCACCUUGGCUUC (ssRNA, [none]) [sc1 A35A36 to CC], the binding result in [8] was “no binding”.

With GCUGCGGUGUGGAAGGAGUGGCUGGGUUGCGCACC (ssRNA) [sc1 truncated with 5-6 nt stem (boundaries nt 23-57)], in data set [9], the binding result is recorded as “binds”.

GUGGAAGGAGUGGCUGGG (ssRNA) [sc1 conserved element only]: the binding result in data set [10] was “no binding”.

Take CCUCGGCCUCCUCCUGCCUCCCC (ssRNA) [Sec7-related GEF antisense transcript]: in data set [11], the binding result was “no binding”.
